Experimental data from the nanobody polyreactivity screen of Harvey et al. (2022).

Test: yeast display, Sf9 membrane polyspecificity reagent, FACS + sequencing; frameworks hold sequencing errors
How it was run: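 Sorting gates, low and high (top ~1%), were placed on anti-HA fluorescence to track expression and on streptavidin fluorescence to track reagent binding. A clone's polyreactivity label is taken from the gate it came out of. The reagent was 10% biotinylated, detergent-solubilized Sf9 membrane, applied for 1 hour at 4 °C to galactose-induced yeast display cells.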

Sequence	polyreactivity (PSR sort gate)
QVQLVESGGGLVQAGGSLRLSCAASGFIIDRYAMGWYRQAPGKERELVARISWSGGSTYYADSVKGRFTISRDNAKNTVYLQMNSLKPEDTAVYYCNKAAWWLQSRYDYWGQGTQVTVSS	high polyreactivity
QVQLVESGGGLVQAGGSLRLSCAASGSTFVSSAMGWYRQAPGKERELVARITWNGGNTYADSVKGRFTISRDNAKNTVYLQMNSLKPEDTAVYYCSTDYVVGFYYWGQGTQVTVSS	low polyreactivity
QVQLVESRGGLVQAGGSLRLSCAASGRIFHYYVMGWYRQAPGKERELVARITFNGGGTYYADSVKGRFTISRDIAKNTVYLQMNRLKPEDTAVYYCNARYPWRDWEDDYWGQGTQVTVSS	low polyreactivity
QVHLVESAGGLVQAGGSLRLSSDSSGLIFYRYAMGWYRQAPGKERELVAAITSRSGRTYYADSVKGRFTFSRDNAKNTVYLQMNSLKPEDTAVYYCNAEWRSRYDYWGQGNQVTVSS	high polyreactivity
QVQLVESGGGLVQAGGSLRLSCAASGSIFGYYAMGWYRQAPGKERELVAAISGSGGSTYYADSVKGRFTISRDYAKNTVYLQMNSLKPEDTAVYYCAARWQWLNGYYYWGQGTHVTVSS	high polyreactivity
QVQLQESGGGLVQAGGSLLSCAASGTISWVDEMGWYRQAPGNERELVAGIAGGGNTNYADSVKGRFTISRDNAKNTVYLQMNSLDTAVYYCAVVGFGLGTHIYWGQGTQVTVSS	high polyreactivity
QVQLVESGGGLVQAGGSLRLSCAASGLIFGPYAMGWYRQAPGKERELDAAITSSGGSTYNADSVKGRFTISRDNAKKSVYLQMNSLKPEDTAVYYCAARGSPRYYARYNYWGQGTQVTVSS	low polyreactivity
QVQLVESGGGLVQAGGSLRLSCAASGLIFKLNAMGWYRQAPGKARELVAAIRASTGSTYYADSVKGRFTISRDNAKNTVYLQMNSLKPEDTAVYYCAVRLRWYFFLMDYWGQGTQVTVSS	high polyreactivity
QVQLVESGGGLVQAGGSLRLSCAASGSTFRYNVMGWYRQAPGKERELVAAISSGGSTYYADSVKGRFTISRDNAKNTVYLQMNSLKPEDTAVYYCAAPRYLFFVGLGMDYWGQGTQVTVSS	high polyreactivity
QVKLVESGGGLVQAGGSLRLSCAASGFTFYYYTMGGSRQAPGKERELVAAITSRGGNTYYADSVKGRFTISRDYEKNTVYLQMNSLKPEDTAVYYCAACLFSSRCYGYWGQGTQVTVSS	high polyreactivity
QVQLVESGGGLVQAGGSLRLSCAASGRTFGYYAMGWYRQAPGQERELVAAISSGGGTYYADSVKGRFTISRDNAKNTVYVQMNSLKPEDTAVYYCAATGWVYWGQFDYWGEGTQVTVSS	low polyreactivity
QVQLVESGGGLVQAGGSLRLSCAASGSIFPVYAMGWYRQAPGKERELVAAINSSGGTTYYADSVKGRFTISRDNAKNTVYLQMNSLKPEDTAVYYCAAEISTASYFAKTYDYWGQGTQVTVSS	low polyreactivity
QVQLVESGGGLVQAGGSLRLSCAASGSTFPGYAMGWYRQAPGKERELVAAINWRGDSTYYADSVKGRFTISRDNAKNTVYLQMNSLKPEDTAVYYCAAKYNHVTDEYDYWGQGTQVTVSS	high polyreactivity
QVQLVESGGGLVQAGGSLRLSCAASGNIFGQNAMGWYRQAPGKERELVAAISSNGGRTYYADSVKGRFTISRDNAKNTVYLQMNSLKPEDTAVYYCAAEAVYAYEWYYYWGQGTQVTVSS	high polyreactivity
QVQLVESGGGLVQAGGSLRLSCAASGIFFHYAMGWYKQAPGKERELVAAISYSGGRTYYADSVKGRFTISRDNAKNTVYLQMNSLKPEDTAVYYCAARYYIGYGHRTYGYDYWGQGTQVTVSS	high polyreactivity
QVQLVESGGGLVQAGGSLRLSCAASGLIFDTYAMGWYRQAPGKERELVADITWSGGSTYYADSVKGRFTISRDNAKNTVYLQMNSLKPEDTAVYYCAADSVSLFYWDQRYPDEYDYWGQGTQVTVSS	low polyreactivity
QVQLVESGGGLVQAGGSLRLSCAASGSIFQCYTMGWSRQAPGKERELVAAISSTGSTNYADCVMGRFTISLDNAKNTVYLQMNSMNPEDTAVFYCAGVGTYLAGYQFDYWGQGTQVTVSS	low polyreactivity
QVQLVESGGGLVQAGGSLRLSCAASGFIFFPYTMGWYRQAPGKERELVAAITNGGSTSYADSVKGRFTISRDNAKNTVYLQMNSLKPEDTAVYYCAADLGRNLLHTFYYWGQGTQVTVSS	low polyreactivity
QVQLVESGGGLVQAGGSLRISCAASESIFPVYAMGWYRQAPGKERELVATITDGGGDTYYADSLKGRFTISRDNAKNTVYLQMNSLKPEDTAVYYCAARSMPEWSAYWYDYWGQGTQVTVSS	low polyreactivity
QVQLVESGGGLVQAGGSLRLSCAASGIIFSSYAMGWYRQAPGKERELVAAISRRSGSTYYADSVKGRFTISRDNAKNTVYLQMNSLKPEDTAVYYCNKLPGTPRSLATGDYWGQGTQVTVSS	high polyreactivity
QVQLVESGGGLVQAGGSLRLSCAACGSIVVGYAMGWYRQAPGKERELVAVITSDGSTNYADSVKGRFTISRDNAKHTVYLPMNSLKPEDTAVYYCAADPWLGTGRYDYWGQGTQVTVST	low polyreactivity
QVQLVESGGGLVQAGGSLRLSCAASGRTSPRYAMGWYRQAPGKEREWVASISGSGGRTYYADSVKGRFTISRDNAKNTVYLQMNSLKPEDTAVYYCAASTQGNYYPYKRYDYCGQGTQVTVSS	high polyreactivity

Sequence	polyreactivity (PSR sort gate)
QVQLVESAVGLVQAGGSHRLSCAASAGTFYFYAMGWYRQAPGKERELVATITRGGSTYYADSVKGRFTISRDNAKNTVYLQMNSLNPEDTAVYYCAARQYSRRRSPVSTWYYYWGQGTQVTVSS	high polyreactivity
QVQLVESGGGLVQAGGSLRLSCAASGFIFASYAMGWYRQAPGKERELVAAISWRGGSTYYADSVKGRFTISRDNAKNTVYLQMNSLKPEDTAVYYCNAYVYVGTGRGYDTLDYWGQGTQVTVSS	low polyreactivity
QVQLQESGADLEQAGGSLRLSFTASGTISDVRVMAWYRQAPGKERELVATISYVTITYYADSVKGRFTISRDSEKHRVSADDEPETGRYRGVLLRYYWGLGTQVTVSS	low polyreactivity
QVQLVESGGGLVQAGGSLRLSCAASGRIFKYYTMGWYRQAPGKERELVARISSSGGSTYYADSVKGRFTISRDNAKNTVYLQMNSLKPEDTAVYYCNTRAAYHQTTHKYERDYWGQGSQVTVSS	low polyreactivity
QVQLVESGGGLVQAGGSLSLSCAASGYTFYKYAMGSYIQAPGKERELVAAISSSGGSTYYADSVKGRFTISRDNAKNTVYLQMNSLKPEDTAVNYCAAYVYSNDYDYWGQGTQVTVSS	high polyreactivity
QVQLVESWGGLVQAGGSLRLSCAASGSTFGYYAMGWYRRAPGNEMELVAALSSSSSTNYADSVKGRFTISRDNAMNTVYLQMNRLIPEETAVYYCASDPYWLHWTFDYWGQGSQVTVSS	low polyreactivity
QVQLVESGGGLVQAGGSLRLSCAASGRIFYGYAMGWYRQAPGKERELVAAITSGSRTNYADSVKGRFTISRDNAKNTVYLQMNSLKPEDTAVYYCHSRYGSYLYSLVHNTRYDYWGQGTQVTVSS	low polyreactivity
QVQLVESGGGLVQAGGSLRLSCAASGSTFYAYTMGWYRQAPGKERELVAAISSGGGTYYADSVKGRFTISRDNAKNTVYLQMNSLKPEDTAVYYCAADPVGYYDPSDYWGQGTQVTVSS	low polyreactivity
QVQLVESRGGLVQAGGSLRLSCAASGNTFYGYAMGWYRPAPGKERELVASITLSGDSTYYADSVKGRFTISRDNAKNTVYLQMNSLKPEDTAVYYCAGVYTYPLGYYHYTYDYWGQGTQVTVSS	low polyreactivity
QVQLVESGGRLVQAGGSLRLSCASSGRTFYPYVMGWYRQAPGKERELVAAISSGTSTYYADSVKGRFTISRDNAKNTVYLQMNSLKPEDTAVYYCAVRVYTYVLYDFWGQGTQVTVSS	high polyreactivity
QVQLLESGGGLVQAGGSLRLSCAASGSIFYYYTMGWYRQAPGKETELVAAISRGGSTNYADSVKGRFTISRDNAKNTVYLQMNSLKPEDTAVYYCAADRLSGRYAYRFDYWGQGTQVTVSS	low polyreactivity
QVQLVESGGGLVQAGGSLRLSCAASGNIFDHYAMGWYRQAPGKERELVASITDSGDSTSYADSVKGRFTISRDNAKNTVYLQMNSLKPEDTAVYYCAADPYSVYGGDYWGQGTQVTVSS	low polyreactivity
QVQLVESGGGLVQAGGSLRLSCAASGSIFRWYAMGWSRQAPGKEREFVAAITSSGGSTYYADSVKGRFTISRDNAKNTVYLQMNSLKPEDTAVYYCNRRYQPYSYDYWGQGTQVTVSS	high polyreactivity
QVQLVESGGGLVQAGGSLRLSCAASGRTFPVNAMGWYRQAPGKERELVAAIRRRGGSTYYADSVKGRFTISRDNAKNTVYLQMNSRKPEDTAVYYCAADKSSSFSYSYGYWGHGTQVTVSS	low polyreactivity
QDQLVESGGGLVQAGGSLRLSCAASGRTFGRYAMGWYRQAPGKERELVASISYSTDSTYYADSVKGRFTISRDNAKNTVYLQMNSLKPEDTAVYYCATDSVNVGSYVGDKHDYWGQGTQVTVSS	low polyreactivity
QVQLVESGGGLVQAGGSLRLSCAASGRTFYYYAMGWYRPAPGKERELVAAIRRSGSSTYYADSVKGRFTISRDNAKNTVYLQMNSLKPEDTAVYYCAAAVYQRARYYWGQGTQVTVSS	high polyreactivity
QVQLVESGGGLVQAGGSLRLSCAASGRTFKWNAMGWYRPAPGKERELVAAISISAGSTYYADSVKGRFTISRDNAKKTVYLQMNSLKPEDTAVYYCNTKYVRFYSRMDSWGQGTQVTVSS	low polyreactivity
QVQLVESGGGLVQAGGSLRLSCAASGIFRKYAMGWYRQAPGTERELVAAITWGGGRTYYADSVKGRFTISRDNAKNTVYLQMNSLKPEDTAVYYCAAEYSLVPSYKVYYWGQGTQVTVSS	high polyreactivity
QVQLVESGGGLVQAGGILRLSCAASGSIFYAYDKGWYRQAPGKERELVAGISSSDSTYYADSVKGRFTISRDNAKNTVYLQLNSLKPEDTAVYYCAADPVFAAAYIHLYGIYDTWGQGTQVTVSS	low polyreactivity
QVQLVESGGGLVQAGGSLRLSCAASGGIFHNYAMGWYRQAPGKERELVAAITTSDGSTYYEDSVKGRFTISRDIAKNTVYLEMNSLKPEDTAVYYCNAEYLYTVYFDDGGFIMDYWGQGTQVTVSS	low polyreactivity
QVQLVDSGGGLVQEVGSLRLSCAASGSTFPFNAMGWYRQAPGKERELVATISGRGGSTYYADSVKGRFTISRDNAKNTVYLQMNSLKPEDTAVYYCAAEIHDRFDSWGQGTQVTVSS	low polyreactivity
